From paper PMC7688916 (2020)

B1: GvpF fused to NGFP or CGFP (split-GFP) [Halobacterium salinarum PHH1] / GvpA fused to NGFP or CGFP (split-GFP) [Halobacterium salinarum PHH1] (parent complex)
chain 1: MTENLYTYGIIEQEDLELDVEGVAGAEQVYTVDYKTLSAVVSDIDTTDPERTDEDVEAHNNVLQEVLKHEEERTVVPMSFGMAFKSARTLKGVLRGARRALRSTLNDIEGTVELGVKILGPGDDTVPREEIQENVTDQLADLSINETENDLFTDRLIINKSYLVDFEKRDAFDSAIDDVEAEYDELTIQYTGPWPPYNFVDIHIGAEQQQGGR
chain 2: MAQPDSSGLAEVLDRVLDKGVVVDVWARVSLVGIEILTVEARVVAASVDTFLHYAEEIAKIEQAELTAGAEAAPEA

Variants of: B1
Assay: split-GFP; in Hfx. volcanii; FN fusion protein used as interaction partner; two biological and three technical replicates; parent: 20; read off a plot

Row | Variant | response [relative fluorescence]
1 | chain 2 E65A | ~13
2 | chain 2 E57A | ~12
3 | chain 2 H53A | ~12
4 | chain 2 D14A | ~13
5 | chain 2 I61A | ~16
6 | chain 2 A46Y | ~11
7 | chain 2 G33V | ~5.6
8 | chain 2 E11A | ~11
9 | chain 2 A27E | ~5.2
10 | chain 2 A45Y | ~9
11 | chain 2 D5A | ~10
12 | chain 2 A41E | ~19
13 | chain 2 A64Y | ~14

The next lines start with the values.

Row | response [relative fluorescence] | Variant
14 | ~19 | chain 2 V29D
15 | ~5.3 | chain 2 R15A
16 | ~19 | chain 2 W26A
17 | ~19 | chain 2 L52E
18 | ~13 | chain 2 L17A
19 | ~13 | chain 2 T38A
20 | ~12 | chain 2 R42A
21 | ~12 | chain 2 R42E
22 | ~14 | chain 2 Y54A
23 | ~5.4 | chain 2 K19D
24 | ~9.8 | chain 2 K19A
